Changes are numbered by the printed parent chain. Names may count otherwise.
B1: ScSLAC (small laccase, SLAC) (Streptomyces coelicolor A3(2); M298L) (protein)
chain: AKGITARTAPAGGEVRHLKMYAEKLADGQMGYGFEKGKASVPGPLIEVNEGDTLHIEFTNTMDVRASLHVHGLDYEISSDGTAMNKSDVEPGGTRTYTWRTHKPGRRDDGTWRPGSAGYWHYHDHVVGTEHGTGGIRNGLYGPVIVRRKGDVLPDATHTIVFNDMTINNRKPHTGPDFEATVGDRVEIVMITHGEYYHTFHMHGHRWADNRTGILTGPDDPSRVIDNKITGPADSFGFQIIAGEGVGAGAWMYHCHVQSHSDMGLVGLFLVKKPDGTIPGYEPHEHGGATAKSGESGEPTGGAAAHEHEH
B2: ScSLAC (small laccase, SLAC) (Streptomyces coelicolor A3(2); M198F/M298F) (protein)
chain: B1 chain with M165F, L265F
B3: ScSLAC (small laccase, SLAC) (Streptomyces coelicolor A3(2); M298F) (protein)
chain: B1 chain with L265F
B4: ScSLAC (small laccase, SLAC) (Streptomyces coelicolor A3(2)) (protein)
chain: B1 chain with L265M

Each protein was assayed on COc1cccc(OC)c1O (assay: purified protein). Conditions: pH 8.0, 42 °C, 0.25-15 mM substrate.
Assay type: biochemical, Streptomyces coelicolor

Protein	Km [µM]	kcat [s⁻¹]	kcat/Km
B1	1300 ± 90	1.5	kcat/Km = 1.2 × 10^3 s^–1 M^–1
B2	1100 ± 80	0.8	kcat/Km = 0.7 × 10^3 s^–1 M^–1
B3	1200 ± 190	0.7	kcat/Km = 0.6 × 10^3 s^–1 M^–1

Each protein was assayed on COc1cc(-c2cc(OC)c(O)c(OC)c2)cc(OC)c1O (assay: purified protein). Conditions: pH 8.5, 42 °C, 0.025-2 mM substrate.
Assay type: biochemical, Streptomyces coelicolor

Protein	Km [µM]	kcat	kcat/Km
B2	100 ± 20	5.6 s⁻¹	kcat/Km = 5.6 × 10^4 s^–1 M^–1
B4	300 ± 50	kcat = 11.3 s^–1	kcat/Km = 3.8 × 10^4 s^–1 M^–1
B3	300 ± 50	5.4 s⁻¹	kcat/Km = 1.8 × 10^4 s^–1 M^–1

Each protein was assayed on CCn1c(=NN=c2sc3cc(S(=O)(=O)O)ccc3n2CC)sc2cc(S(=O)(=O)O)ccc21 (assay: purified protein). Conditions: pH 5.0, 42 °C, 0.1-25 mM substrate.

Protein	Km [µM]	kcat [s⁻¹]
B1	5000 ± 220	9.3
B2	1100 ± 40	3.9
B4	7300 ± 260	38.6
B3	4100 ± 240	3.7

Reference: paper PMC8867573
